Experiments:
[1] = biological target: APE1 (apurinic/apyrimidinic endonuclease 1) (human, UniProt P27695 1-318); test: EMSA
ISY1 = biological target: T1, ISY1 (human, UniProt Q9ULR0 1-285); test: EMSA
T1 sequence: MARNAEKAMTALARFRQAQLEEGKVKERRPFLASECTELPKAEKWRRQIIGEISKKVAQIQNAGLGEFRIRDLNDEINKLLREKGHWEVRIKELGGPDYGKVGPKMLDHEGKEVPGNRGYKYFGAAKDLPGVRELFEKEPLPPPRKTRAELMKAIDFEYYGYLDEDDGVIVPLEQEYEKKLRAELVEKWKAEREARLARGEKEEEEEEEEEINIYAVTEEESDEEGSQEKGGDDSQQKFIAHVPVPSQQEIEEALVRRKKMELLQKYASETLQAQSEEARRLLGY

Sequence of APE1 (apurinic/apyrimidinic endonuclease 1) (P27695 whole entry): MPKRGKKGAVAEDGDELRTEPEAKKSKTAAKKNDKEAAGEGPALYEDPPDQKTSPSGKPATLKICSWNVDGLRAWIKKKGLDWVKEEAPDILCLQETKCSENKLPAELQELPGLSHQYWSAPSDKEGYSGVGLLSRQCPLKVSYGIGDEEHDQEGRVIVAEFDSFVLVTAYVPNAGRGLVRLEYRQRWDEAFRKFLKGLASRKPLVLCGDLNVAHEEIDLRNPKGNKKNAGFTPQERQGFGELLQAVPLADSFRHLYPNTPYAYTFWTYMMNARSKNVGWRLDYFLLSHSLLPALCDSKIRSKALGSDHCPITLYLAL

B1: 37-mer control DNA duplex (no AP site) (dsDNA)
DNA 1: CCTGCAGCTGGTGCAAAAGTATTGCGGCGTGTACGGT
DNA 2: ACCGTACACGTTTCCTTACGGGGTCACCAGCTGCAGG
Does B1 bind [1]?
Result: no binding

Does B1 bind (ISY1)?
Result: no binding

Reference: paper PMC7185567
